{
  "source": "paper doi:10.1101/2021.04.15.439997",
  "about": "(bioRxiv, 2021)",
  "biological_target": "the molecule itself",
  "assay": "SEC-MALS",
  "data": [
    {"protein": "Strep-tagged glucose-6-phosphate dehydrogenase (G6PDH) from Synechocystis (enzyme) not shown", "values": [
      {"measurement": "stoichiometry N", "result": 4}
    ]}
  ]
}
